Measured values: US20240425603A1 (Janssen / Centocor, published 2024)
Values joined by “and” are separate entries in the source; they are usually repeats but may differ in a detail not shown here. Identical values can stand only once.

T1: mouse VEGFR1 (soluble antigen of the KinExA and SPR affinity assays) (mouse, UniProt P35969 23-759, limits assumed)
T1 sequence (looked up): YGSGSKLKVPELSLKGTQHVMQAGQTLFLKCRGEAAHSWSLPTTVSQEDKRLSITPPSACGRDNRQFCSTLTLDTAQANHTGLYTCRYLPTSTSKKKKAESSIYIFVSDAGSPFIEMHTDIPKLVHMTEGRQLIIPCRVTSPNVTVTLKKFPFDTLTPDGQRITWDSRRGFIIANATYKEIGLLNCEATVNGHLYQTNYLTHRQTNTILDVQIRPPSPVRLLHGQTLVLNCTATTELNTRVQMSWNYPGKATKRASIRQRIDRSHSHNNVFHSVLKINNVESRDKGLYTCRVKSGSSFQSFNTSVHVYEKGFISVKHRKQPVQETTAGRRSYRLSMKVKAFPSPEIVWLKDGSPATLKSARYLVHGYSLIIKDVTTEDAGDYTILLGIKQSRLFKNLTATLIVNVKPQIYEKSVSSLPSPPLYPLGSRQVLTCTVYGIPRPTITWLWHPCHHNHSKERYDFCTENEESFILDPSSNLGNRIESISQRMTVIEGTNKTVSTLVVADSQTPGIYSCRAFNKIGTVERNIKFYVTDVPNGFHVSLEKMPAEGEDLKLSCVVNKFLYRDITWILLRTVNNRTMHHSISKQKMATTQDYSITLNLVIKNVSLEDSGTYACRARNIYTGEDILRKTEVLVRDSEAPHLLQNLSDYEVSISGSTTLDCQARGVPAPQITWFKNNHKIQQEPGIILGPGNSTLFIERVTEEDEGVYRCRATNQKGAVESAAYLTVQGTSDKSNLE

B1: VGFB82 (antibody, human IgG1, lambda, L234A L235A, V domains shown)
VH: EVQLLESGGGLVQPGGSLRLSCEASGFDFSTYAMNWVRQAPGKGLEWVATINSEGTITSHAPAVKGRFTISRDNSKNTAYVQMNSLRAEDSAVYYCSSTTGTTHGMDVWGRGTTVTVSS
VL: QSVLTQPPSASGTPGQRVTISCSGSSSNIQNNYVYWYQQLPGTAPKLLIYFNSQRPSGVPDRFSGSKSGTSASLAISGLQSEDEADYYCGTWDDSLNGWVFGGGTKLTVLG
notes: human IgG1 (L234A/L235A/D265S)
B2: VGFB78 (antibody, human IgG1, lambda, L234A L235A, V domains shown)
VH: EVQLLESGGGLVQPGGSLRLSCAASSFTFYNYDMTWVRQAPGKGLEWVAGIGTSGTDMYYADSVKGRFTISRDNSKNTLYLQMNSLRAEDTAIYYCAKDYYYYGMDVWGLGTTVTVSS
VL: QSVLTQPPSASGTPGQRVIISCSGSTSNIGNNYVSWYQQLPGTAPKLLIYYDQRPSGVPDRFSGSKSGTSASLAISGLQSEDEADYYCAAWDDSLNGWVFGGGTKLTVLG
notes: as for B1
B3: VGFB54 (antibody, human IgG1, lambda, L234A L235A, V domains shown)
VH: EVQLLESGGGSVQPGGSLRLSCTASGFNFEDYGMNWVRQAPGKGLDWVSSINRNGDISTYHVDSVKGRFTISRDNSKNTLYLQMNSLRAEDTAIYYCTKNHDYHGMDVWGQGTTVTVSS
VL: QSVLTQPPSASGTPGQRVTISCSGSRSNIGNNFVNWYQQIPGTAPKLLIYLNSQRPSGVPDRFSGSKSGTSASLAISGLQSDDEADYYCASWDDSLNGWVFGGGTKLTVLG
notes: human IgG1 (L234A/L235A/D265S), lambda, 2H:2L; from OmniChicken
B4: VGFB71 (antibody, human IgG1, lambda, L234A L235A, V domains shown)
VH: EVQLLESGGGLVQPGGSLRLSCEASGFIFRDYNMNWVRQAPGKGLEWVSIITNDGSSTAYSDSVKGRFTISRDNSKNSLYLQMNSLRAEDTAIYYCVKVYYGMDDWGQGTTVTVSS
VL: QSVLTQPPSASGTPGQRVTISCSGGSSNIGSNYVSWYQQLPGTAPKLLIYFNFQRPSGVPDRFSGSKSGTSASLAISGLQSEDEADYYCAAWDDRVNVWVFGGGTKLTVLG
notes: as for B1

biological target: T1, mouse VEGFR1 (soluble antigen of the …); test: SPR

Binder | Kd
B1 | 0.01 nM
B2 | 0.004 nM and < 0.006 nM
B3 | 5.3 nM

biological target: T2, human VEGFR1, full length, over-expressed on cells (human, UniProt P17948 27-1338); test: flow cytometry, CHO-K1 cells stably expressing human VEGFR1
T2 construct: on CHO-K1 or HEK cells; also called hVEGFR1; CHOK1/ human VEGFR1
Experimental: Full dose-response curves for binding of anti-VEGFR1 antibodies to VEGFR1 on cells were also generated. Parental CHO-K1 cells and CHO-K1 cells stably expressing human VEGFR1 (CHO-K1\hVEGFR1) were cultured in aMEM+10% FBS and aMEM+10% FBS containing 10 μg/mL Puromycin, respectively. CHOK1\hVEGFR1 were stained with CSFE as described above and parental CHO-K1 cells were left unstained. Cells were washed, combined (˜0.5×10⁶ cells/mL), and plated at ˜40,000 cells per well (75 μL/well). Serially diluted antibody samples were then added to the cells and incubated for 1 hour at 37° C. Cells were washed twice with stain buffer and then stained with AF647-conjugated secondary antibody for 30 min at 4° C. Plated cells were washed twice followed by the addition of read buffer containing Sytox Blue (1:1000) and read on an iQue flow cytometer. Data was fit to obtain EC₅₀ values (Table 22).

T2 sequence (P17948 27-1338 limits assumed): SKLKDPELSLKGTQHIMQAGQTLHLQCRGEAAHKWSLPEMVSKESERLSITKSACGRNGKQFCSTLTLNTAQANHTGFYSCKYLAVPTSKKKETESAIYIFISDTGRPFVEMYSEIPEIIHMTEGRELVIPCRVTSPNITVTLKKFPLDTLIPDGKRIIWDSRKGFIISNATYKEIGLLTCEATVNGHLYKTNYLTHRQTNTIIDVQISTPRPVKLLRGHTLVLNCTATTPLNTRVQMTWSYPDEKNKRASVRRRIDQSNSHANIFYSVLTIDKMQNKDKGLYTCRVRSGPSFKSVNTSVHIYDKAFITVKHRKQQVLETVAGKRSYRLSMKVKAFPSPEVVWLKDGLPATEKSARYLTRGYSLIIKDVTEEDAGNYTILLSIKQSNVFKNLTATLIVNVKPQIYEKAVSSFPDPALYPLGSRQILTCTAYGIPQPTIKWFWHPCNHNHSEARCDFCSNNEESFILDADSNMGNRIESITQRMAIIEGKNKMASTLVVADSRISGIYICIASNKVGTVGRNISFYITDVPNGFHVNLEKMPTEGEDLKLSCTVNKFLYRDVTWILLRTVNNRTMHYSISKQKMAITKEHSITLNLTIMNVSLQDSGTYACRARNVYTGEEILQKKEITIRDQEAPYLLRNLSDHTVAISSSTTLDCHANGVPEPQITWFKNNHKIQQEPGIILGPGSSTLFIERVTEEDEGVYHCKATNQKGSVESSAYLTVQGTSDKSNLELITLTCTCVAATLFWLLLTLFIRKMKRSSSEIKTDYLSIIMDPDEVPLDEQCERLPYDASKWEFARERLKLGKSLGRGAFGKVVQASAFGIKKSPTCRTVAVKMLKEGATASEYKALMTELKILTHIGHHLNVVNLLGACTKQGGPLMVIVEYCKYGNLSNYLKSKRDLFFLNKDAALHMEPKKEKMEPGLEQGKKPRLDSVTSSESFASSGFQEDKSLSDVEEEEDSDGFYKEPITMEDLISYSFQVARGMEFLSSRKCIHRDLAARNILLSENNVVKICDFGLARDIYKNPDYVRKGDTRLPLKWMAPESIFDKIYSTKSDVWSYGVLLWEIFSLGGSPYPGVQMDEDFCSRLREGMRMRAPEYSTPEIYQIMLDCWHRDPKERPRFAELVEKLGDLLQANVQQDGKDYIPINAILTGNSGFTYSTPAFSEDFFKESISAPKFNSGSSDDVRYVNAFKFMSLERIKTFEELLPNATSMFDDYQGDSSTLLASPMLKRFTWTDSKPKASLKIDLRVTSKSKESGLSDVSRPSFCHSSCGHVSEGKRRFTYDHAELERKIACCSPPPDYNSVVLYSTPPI

Binder | EC50 [nM]
B4 | 0.11
B1 | 0.136
B2 | 0.473
B3 | 0.101

biological target: T3, cynomolgus monkey VEGFR1, over-expressed on HEK293 cells (cynomolgus monkey); test: flow cytometry, 10 nM antibody, HEK cells over-expressing cyno VEGFR1
T3 construct: whole, on cells; also called HEK/ cyno VEGFR1; cynoVEGFR1
Experimental: Parental CHO-K1 cells, CHO-K1 cells stably expressing human VEGFR1, Ba/F3 parental, and Ba/F3 cells stably expressing murine VEGFR1 were stained for 10 minutes at 4° C. with either no stain, CSFE, CTV, or CTV+CSFE, respectively. Cells were subsequently washed with media containing heat inactivated FBS, collected by centrifugation, combined, resuspended in stain buffer, and plated (95 μL/well; 200,000 of each cell type per well). Antibody samples were added ([…]) to a final concentration of 10 nM and incubated for 60 min at 4° C. protected from light. Cells were washed twice with 150 μL/well stain buffer. AlexaFluor647-conjugated anti-human IgG1 secondary antibody was added (100 μL/well) and incubated for 30 minutes at 4° C. protected from light. Cells were washed twice with 150 μL of stain buffer, ultimately resuspended in 30 μL of running buffer and read on an iQue flow cytometer. This single concentration assay was used as a quick confirmation of binding to human and mouse VEGFR1 on cells. A similar assay was performed to confirm binding of candidate antibodies to HEK293 cells stably over-expressing cyno VEGFR1 at a single concentration of 10 nM.

Binder | Geomean over-expressing/Geomean parental (Fold Signal/Background) [fold]
B4 | 3.8
B1 | 3.3
B2 | 4.46
B3 | 4.4

biological target: T4, human VEGFR3, over-expressed on K562 cells (human, UniProt P35916 25-1363); test: flow cytometry, 10 nM antibody, K562 cells over-expressing human VEGFR3
T4 construct: whole, on cells; also called huVEGFR3; hVEGFR3
T4 sequence (P35916 25-1363): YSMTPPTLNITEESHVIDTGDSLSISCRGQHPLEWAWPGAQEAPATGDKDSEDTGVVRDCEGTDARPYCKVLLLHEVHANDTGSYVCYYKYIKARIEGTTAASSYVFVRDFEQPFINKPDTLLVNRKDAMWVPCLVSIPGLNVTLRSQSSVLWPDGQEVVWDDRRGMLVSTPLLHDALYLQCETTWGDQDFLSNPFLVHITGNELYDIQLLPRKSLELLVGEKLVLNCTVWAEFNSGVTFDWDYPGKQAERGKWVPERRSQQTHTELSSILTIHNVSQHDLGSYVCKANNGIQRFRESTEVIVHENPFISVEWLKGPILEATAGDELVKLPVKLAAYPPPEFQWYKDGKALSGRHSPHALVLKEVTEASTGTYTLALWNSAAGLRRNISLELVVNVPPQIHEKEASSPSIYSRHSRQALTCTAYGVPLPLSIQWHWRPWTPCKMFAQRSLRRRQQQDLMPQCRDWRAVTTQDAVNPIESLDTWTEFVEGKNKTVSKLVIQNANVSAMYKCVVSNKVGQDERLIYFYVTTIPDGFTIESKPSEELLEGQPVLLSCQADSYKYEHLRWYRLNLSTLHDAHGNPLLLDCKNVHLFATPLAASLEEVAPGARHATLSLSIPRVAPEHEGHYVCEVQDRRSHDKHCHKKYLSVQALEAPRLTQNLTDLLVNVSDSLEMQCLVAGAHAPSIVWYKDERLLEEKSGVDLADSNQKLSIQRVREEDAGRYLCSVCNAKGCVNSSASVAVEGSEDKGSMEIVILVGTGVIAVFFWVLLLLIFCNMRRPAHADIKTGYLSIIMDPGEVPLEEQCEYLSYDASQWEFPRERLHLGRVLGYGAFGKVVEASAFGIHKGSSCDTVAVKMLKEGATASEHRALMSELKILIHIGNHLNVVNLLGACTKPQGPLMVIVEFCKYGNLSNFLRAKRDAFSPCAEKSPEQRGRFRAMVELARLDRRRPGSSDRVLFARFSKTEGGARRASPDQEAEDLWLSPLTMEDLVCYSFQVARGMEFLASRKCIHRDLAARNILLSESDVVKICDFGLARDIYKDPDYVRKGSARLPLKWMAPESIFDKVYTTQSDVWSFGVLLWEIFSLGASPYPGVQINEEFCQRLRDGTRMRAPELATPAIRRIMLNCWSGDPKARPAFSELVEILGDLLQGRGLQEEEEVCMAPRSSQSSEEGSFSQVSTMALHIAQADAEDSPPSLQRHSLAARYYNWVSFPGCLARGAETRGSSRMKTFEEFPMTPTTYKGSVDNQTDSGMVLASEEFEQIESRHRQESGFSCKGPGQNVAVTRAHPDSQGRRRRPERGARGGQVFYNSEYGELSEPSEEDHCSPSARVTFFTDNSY

Binder | Geomean over-expressing/Geomean parental (Fold Signal/Background) [fold]
B4 | 0.98
B1 | 1.01
B2 | 0.99
B3 | 0.97

biological target: T5, His tagged cyno VEGFR1 (cynomolgus monkey, UniProt A0A2K5VAF2 27-758); test: MSD ECL competition on plate-bound His-tagged cyno VEGFR1; competitor biotin human PlGF (2 nM)
Summary of the method: (§1)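 MSD 384 plates were coated with Protein A/G or anti-His mAb, blocked with Blocker A, and used to capture human or mouse VEGFR1-Fc or His-tagged cyno VEGFR1 at 0.5 ug/ml for 1 hour at room temperature. Antibody in half-log dilutions was pre-incubated for 30 minutes, after which biotinylated VEGFA (0.2 nM) or PlGF (2 nM) was added. Bound ligand was detected with Sulfo-tagged streptavidin on an MSD SECTOR S 600 imager, and IC50 and maximal percent inhibition were derived from the electro-chemiluminescence signal.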

Binder | IC50 [nM] | Max % Inh. [%]
B1 | 0.091 | 100
B2 | 0.177 | 100
B3 | 0.078 | 100

biological target: T5, His tagged cyno VEGFR1; test: MSD ECL competition on plate-bound His-tagged cyno VEGFR1; competitor biotin human VEGFA165 (0.2 nM)
Summary of the method: as §1

Binder | IC50 [nM] | Max % Inh. [%]
B1 | 0.081 | 99
B2 | 0.134 | 98.6
B3 | 0.089 | 98.6

biological target: T6, human VEGFR2, over-expressed on HEK293 cells (human, UniProt P35968 20-1356); test: FACS cell binding (MFI) on HEK cells over-expressing human VEGFR2; expanded clone supernatant per paragraph 492, concentration not given
T6 construct: whole, on cells; also called huVEGFR2; hVEGFR2
Summary of the method: (§2)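 Flow cytometry was used to measure binding of culture supernatants to HEK cells over-expressing mouse VEGFR1 or human VEGFR2 and to K562 cells over-expressing human VEGFR3. The supernatants came from chicken-derived clones expressed as scFv-Fc (human IgG1) by transient transfection and expanded to 6-well plates (2 mL). Binding is reported as mean fluorescence intensity.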

T6 sequence (P35968 20-1356): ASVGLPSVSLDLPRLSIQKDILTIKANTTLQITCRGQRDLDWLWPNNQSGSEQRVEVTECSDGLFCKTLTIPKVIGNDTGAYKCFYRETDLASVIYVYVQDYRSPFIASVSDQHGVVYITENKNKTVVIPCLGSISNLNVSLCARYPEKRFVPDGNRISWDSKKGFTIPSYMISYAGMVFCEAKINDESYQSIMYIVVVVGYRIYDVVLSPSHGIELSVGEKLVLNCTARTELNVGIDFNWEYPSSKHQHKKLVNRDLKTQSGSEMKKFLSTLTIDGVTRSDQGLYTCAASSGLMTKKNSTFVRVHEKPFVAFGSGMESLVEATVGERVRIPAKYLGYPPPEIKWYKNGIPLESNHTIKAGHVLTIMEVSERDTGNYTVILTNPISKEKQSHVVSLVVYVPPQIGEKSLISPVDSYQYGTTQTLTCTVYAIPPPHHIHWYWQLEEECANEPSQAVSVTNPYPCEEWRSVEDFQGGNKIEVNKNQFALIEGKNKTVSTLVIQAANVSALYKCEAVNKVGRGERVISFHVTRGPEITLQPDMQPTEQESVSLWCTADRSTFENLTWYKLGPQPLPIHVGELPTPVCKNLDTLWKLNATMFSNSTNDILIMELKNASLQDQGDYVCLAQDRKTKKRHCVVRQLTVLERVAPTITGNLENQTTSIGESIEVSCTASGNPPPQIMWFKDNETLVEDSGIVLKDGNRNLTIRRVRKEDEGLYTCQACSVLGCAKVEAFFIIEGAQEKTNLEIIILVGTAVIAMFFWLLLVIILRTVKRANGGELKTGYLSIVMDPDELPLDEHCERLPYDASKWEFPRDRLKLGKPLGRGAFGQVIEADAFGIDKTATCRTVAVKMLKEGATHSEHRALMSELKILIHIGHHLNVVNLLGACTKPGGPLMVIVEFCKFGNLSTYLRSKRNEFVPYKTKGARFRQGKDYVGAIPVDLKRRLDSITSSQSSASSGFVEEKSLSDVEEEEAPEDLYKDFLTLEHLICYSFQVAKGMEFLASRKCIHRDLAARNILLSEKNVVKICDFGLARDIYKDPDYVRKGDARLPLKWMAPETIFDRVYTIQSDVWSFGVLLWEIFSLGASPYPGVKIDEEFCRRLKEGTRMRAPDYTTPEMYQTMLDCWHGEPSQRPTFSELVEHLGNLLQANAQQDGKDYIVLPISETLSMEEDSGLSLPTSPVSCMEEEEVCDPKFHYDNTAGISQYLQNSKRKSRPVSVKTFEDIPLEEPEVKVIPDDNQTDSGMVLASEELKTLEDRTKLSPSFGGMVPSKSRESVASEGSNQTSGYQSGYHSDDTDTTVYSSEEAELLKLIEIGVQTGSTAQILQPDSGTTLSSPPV

Binder | binding result
B1 | no binding
B2 | no binding
B3 | no binding

biological target: T4, human VEGFR3, over-expressed on K562 …; test: FACS cell binding (MFI) on K562 cells over-expressing human VEGFR3; expanded clone supernatant per paragraph 492, concentration not given
Summary of the method: as §2

Binder | binding result
B4 | no binding
B1 | no binding
B2 | no binding
B3 | no binding
